Legend:
[1] = molecular target: c-Src SH2; experiment: SH2 binding enrichment of the phosphorylated peptide, bacterial display (enrichment ratio); higher = better substrate or ligand; peptides without Tyr show the background
[2] = molecular target: SHP2-C SH2; experiment: as above
[3] = molecular target: Grb2 SH2 (UniProt P62993); experiment: as above
[4] = tested on: Fer (mouse); experiment: phosphorylation enrichment, bacterial display (enrichment ratio); higher = better substrate or ligand; peptides without Tyr show the background
[5] = molecular target: MERTK (UniProt Q12866); experiment: as above
[6] = molecular target: Jak2 (UniProt O60674); experiment: as above
[7] = molecular target: EPHB2 (UniProt P29323); experiment: as above
[8] = molecular target: Fes (UniProt P07332); experiment: as above
[9] = molecular target: FGFR3 (UniProt P22607); experiment: as above
[10] = tested on: AncSZ; experiment: as above
[11] = molecular target: EPHB1 (UniProt P54762); experiment: as above
[12] = tested on: c-Abl (mouse); experiment: as above
[13] = molecular target: Fyn (UniProt P06241); experiment: as above
[14] = molecular target: FGFR1 (UniProt P11362); experiment: as above
[15] = molecular target: Hck (UniProt P08631); experiment: as above
[16] = tested on: c-Src; experiment: as above
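Throughout, for SH2 binding enrichment of the phosphorylated peptide, bacterial display: peptide library displayed on the E. coli surface as eCPX fusions, selected cells deep-sequenced, score is each peptide's frequency after selection divided by its frequency in the input.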
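Throughout, for phosphorylation enrichment, bacterial display: 11-residue human phosphosite peptides and single-mutation variants displayed on the E. coli surface, counted by deep sequencing, each peptide's frequency after selection divided by its frequency in the unselected input library; frequency after pTyr selection over input frequency; kinase dosed for 20-30% of maximal phosphorylation in three min.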

Hck, sequence (P08631 whole entry, looked up): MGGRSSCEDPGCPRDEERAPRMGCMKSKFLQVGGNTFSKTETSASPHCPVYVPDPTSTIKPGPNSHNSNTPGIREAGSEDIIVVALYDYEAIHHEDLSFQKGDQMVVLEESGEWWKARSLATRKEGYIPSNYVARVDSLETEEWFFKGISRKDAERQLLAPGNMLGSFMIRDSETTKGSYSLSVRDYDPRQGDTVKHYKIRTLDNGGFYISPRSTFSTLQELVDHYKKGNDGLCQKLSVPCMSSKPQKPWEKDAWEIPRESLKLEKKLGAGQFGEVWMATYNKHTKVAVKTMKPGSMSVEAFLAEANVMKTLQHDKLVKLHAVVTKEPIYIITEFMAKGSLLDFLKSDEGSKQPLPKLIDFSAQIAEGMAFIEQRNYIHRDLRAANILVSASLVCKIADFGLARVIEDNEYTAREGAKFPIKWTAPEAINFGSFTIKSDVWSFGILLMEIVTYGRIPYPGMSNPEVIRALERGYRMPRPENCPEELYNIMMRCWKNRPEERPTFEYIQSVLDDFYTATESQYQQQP
Jak2, sequence (O60674 whole entry, looked up): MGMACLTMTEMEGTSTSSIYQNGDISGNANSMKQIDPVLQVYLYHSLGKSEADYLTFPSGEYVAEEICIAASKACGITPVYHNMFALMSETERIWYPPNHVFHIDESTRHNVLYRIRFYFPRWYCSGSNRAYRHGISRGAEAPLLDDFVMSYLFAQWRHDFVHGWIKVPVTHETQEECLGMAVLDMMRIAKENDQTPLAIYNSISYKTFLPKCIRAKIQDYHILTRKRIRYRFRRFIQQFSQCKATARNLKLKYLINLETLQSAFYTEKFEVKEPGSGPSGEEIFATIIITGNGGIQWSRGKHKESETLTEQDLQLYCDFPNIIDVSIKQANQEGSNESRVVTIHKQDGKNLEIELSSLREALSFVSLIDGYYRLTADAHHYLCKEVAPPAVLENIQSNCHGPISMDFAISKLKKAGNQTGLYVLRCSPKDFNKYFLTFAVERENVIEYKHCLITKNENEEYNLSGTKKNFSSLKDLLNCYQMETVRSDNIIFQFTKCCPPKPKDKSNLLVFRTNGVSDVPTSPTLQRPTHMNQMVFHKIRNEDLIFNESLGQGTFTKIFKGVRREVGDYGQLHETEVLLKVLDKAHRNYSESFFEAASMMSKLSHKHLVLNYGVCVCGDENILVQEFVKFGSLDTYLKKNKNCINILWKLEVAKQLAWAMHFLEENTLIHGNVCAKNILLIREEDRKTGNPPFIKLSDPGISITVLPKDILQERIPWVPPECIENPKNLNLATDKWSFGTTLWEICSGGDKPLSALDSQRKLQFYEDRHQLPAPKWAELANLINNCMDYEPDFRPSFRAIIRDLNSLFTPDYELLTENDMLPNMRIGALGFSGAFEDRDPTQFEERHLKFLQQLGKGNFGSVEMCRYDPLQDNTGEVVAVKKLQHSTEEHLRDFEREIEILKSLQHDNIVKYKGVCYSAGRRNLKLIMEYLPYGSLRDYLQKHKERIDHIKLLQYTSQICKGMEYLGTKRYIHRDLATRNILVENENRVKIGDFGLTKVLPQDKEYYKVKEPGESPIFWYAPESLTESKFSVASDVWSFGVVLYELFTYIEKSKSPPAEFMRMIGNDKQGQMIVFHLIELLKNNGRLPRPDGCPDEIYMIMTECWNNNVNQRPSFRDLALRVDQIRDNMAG
Fyn, sequence (P06241 whole entry, looked up): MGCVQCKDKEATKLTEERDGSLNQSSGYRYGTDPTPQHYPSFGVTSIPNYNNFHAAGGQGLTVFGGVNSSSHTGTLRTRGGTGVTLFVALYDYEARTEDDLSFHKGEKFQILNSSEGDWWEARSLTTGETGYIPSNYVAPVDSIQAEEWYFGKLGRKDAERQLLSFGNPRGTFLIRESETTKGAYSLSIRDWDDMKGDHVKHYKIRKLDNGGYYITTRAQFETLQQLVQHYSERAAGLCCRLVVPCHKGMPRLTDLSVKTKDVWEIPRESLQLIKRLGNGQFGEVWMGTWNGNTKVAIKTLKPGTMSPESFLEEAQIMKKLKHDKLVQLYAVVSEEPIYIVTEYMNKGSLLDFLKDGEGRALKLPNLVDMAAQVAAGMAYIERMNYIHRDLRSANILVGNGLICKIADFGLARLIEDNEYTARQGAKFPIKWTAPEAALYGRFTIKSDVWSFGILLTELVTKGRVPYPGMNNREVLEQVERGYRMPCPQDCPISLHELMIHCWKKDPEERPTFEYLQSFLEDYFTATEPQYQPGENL
Fes, sequence (P07332 whole entry, looked up): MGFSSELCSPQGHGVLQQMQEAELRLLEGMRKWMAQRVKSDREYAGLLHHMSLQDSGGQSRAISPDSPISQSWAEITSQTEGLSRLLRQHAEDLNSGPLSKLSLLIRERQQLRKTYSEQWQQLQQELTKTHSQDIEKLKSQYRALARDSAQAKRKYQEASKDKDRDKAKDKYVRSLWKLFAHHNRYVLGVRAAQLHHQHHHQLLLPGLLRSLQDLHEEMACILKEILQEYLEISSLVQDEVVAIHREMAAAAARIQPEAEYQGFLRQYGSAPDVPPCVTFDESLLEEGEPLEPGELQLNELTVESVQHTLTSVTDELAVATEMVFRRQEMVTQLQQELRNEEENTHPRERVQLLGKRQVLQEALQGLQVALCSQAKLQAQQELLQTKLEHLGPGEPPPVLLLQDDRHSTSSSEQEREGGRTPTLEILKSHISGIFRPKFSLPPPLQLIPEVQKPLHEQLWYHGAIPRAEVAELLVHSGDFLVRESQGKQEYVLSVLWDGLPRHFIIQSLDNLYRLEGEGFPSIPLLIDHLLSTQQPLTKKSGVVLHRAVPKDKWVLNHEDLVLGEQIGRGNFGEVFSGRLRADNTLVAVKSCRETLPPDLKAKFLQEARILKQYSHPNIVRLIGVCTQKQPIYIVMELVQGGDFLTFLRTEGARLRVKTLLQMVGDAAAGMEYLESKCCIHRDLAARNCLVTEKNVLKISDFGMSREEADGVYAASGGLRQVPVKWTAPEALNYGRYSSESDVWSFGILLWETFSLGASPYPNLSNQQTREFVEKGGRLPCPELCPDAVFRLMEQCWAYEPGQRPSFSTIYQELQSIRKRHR
FGFR1, sequence (P11362 whole entry, looked up): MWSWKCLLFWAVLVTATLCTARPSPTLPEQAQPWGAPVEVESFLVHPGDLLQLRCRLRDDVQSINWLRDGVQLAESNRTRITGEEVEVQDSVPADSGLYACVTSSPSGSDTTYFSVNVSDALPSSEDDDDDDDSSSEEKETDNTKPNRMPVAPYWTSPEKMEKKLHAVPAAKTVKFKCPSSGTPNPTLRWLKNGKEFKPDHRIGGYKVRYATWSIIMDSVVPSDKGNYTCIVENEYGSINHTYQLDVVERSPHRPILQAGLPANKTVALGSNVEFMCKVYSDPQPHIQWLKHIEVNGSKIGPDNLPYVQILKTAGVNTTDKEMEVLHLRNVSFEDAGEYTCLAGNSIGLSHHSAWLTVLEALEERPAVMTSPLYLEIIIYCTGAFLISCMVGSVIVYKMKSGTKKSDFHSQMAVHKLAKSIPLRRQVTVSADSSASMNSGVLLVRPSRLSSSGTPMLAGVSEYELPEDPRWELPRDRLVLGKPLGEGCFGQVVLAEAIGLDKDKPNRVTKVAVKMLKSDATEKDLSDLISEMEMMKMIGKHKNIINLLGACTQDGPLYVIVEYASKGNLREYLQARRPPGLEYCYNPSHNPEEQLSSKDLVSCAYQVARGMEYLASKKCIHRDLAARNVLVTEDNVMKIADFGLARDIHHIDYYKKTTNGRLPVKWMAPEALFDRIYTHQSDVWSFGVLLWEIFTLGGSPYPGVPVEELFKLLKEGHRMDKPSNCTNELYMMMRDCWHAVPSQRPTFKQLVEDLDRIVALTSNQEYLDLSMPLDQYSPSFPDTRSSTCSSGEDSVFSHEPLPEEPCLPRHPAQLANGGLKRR
MERTK, sequence (Q12866 whole entry, looked up): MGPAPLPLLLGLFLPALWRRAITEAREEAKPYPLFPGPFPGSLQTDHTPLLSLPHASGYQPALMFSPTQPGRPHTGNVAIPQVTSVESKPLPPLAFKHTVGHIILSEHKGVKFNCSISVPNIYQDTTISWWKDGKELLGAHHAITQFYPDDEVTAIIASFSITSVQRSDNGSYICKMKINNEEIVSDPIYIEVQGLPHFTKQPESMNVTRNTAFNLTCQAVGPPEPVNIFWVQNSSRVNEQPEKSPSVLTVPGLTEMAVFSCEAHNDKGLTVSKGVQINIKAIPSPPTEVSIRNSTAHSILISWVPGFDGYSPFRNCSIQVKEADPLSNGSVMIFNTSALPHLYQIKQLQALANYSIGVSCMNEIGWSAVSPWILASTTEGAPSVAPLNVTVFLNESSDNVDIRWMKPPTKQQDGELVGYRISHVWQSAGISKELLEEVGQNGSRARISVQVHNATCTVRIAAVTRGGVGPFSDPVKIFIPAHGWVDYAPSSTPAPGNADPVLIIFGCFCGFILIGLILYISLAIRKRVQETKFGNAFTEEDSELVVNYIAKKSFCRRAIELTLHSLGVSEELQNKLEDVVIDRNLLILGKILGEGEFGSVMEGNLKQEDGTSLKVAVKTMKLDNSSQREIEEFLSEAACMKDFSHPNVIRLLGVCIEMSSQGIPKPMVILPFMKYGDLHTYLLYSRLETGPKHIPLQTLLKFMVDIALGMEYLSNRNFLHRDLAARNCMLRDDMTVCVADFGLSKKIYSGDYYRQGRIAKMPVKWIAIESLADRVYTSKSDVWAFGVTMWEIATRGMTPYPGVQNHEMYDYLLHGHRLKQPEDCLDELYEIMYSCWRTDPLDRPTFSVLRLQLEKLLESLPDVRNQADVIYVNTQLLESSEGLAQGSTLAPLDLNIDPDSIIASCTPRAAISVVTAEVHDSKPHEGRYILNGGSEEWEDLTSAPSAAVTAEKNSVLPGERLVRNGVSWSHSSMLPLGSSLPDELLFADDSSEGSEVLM

SH2 binding enrichment [1] | SH2 binding enrichment [2] | SH2 binding enrichment [3] | Sequence | phosphorylation enrichment [4] | phosphorylation enrichment [5] | phosphorylation enrichment [6] | phosphorylation enrichment [7] | phosphorylation enrichment [8] | phosphorylation enrichment [9] | phosphorylation enrichment [10] | phosphorylation enrichment [11] | phosphorylation enrichment [12] | phosphorylation enrichment [13] | phosphorylation enrichment [14] | phosphorylation enrichment [15] | phosphorylation enrichment [16]
0.473 | 0.569 | 0.834 | RLAKTYETTLE [ALB_Y377] | 0.721 | 0.596 | 1.09 | 0.855 | 1.39 | 0.895 | 0.86 | 0.555 | 0.955 | 0.752 | 0.711 | 0.622 | 0.758
0.604 | 0.821 | 0.865 | RLEKEYFDQHF [NPC1_Y394] | 0.5 | 0.631 | 1.44 | 0.707 | 1.29 | 0.959 | 1.13 | 0.717 | 0.795 | 0.341 | 1.39 | 0.665 | 0.571
1.29 | 1.37 | 1.19 | RLLRGHDQYAY [HLA-B_Y137] | 0.467 | 0.473 | 0.56 | 0.763 | 0.808 | 0.851 | 0.672 | 0.673 | 0.496 | 0.57 | 0.69 | 0.6 | 0.456
1.31 | 1.21 | 1.57 | RLLVVYSWTQR [HBB_Y36_P37S] | 0.565 | 1.05 | 1.37 | 0.593 | 1.57 | 0.91 | 1.47 | 1.04 | 1 | 0.864 | 0.783 | 0.698 | 0.872
0.699 | 0.932 | 0.988 | RLPNGYGLAFR [DLK1_Y262_S260N_YF] | 0.737 | 0.51 | 0.587 | 0.707 | 1.06 | 0.858 | 1.5 | 0.737 | 0.694 | 0.649 | 0.684 | 0.62 | 0.616
0.352 | 0.303 | 0.633 | RLSELYLRRNP [CFAP410_Y68_R73P] | 0.249 | 0.377 | 0.659 | 0.477 | 0.83 | 0.533 | 0.813 | 0.372 | 0.555 | 0.407 | 0.381 | 0.631 | 0.317
0.437 | 0.684 | 0.631 | RNFGTYTAGLS [RHBDD1_Y264_D262G_YF] | 0.798 | 0.302 | 0.315 | 0.477 | 0.495 | 1.07 | 0.702 | 0.377 | 0.445 | 0.441 | 0.483 | 0.657 | 0.517
2.87 | 1.1 | 0.796 | RPDSPYSRLHD [DOK2_Y271_P274L] | 0.65 | 0.85 | 3.09 | 0.467 | 0.983 | 0.657 | 0.916 | 0.471 | 0.957 | 0.464 | 0.552 | 0.614 | 0.884
0.415 | 0.55 | 0.673 | RREWYYEVIIA [BACE1_Y260_V265A] | 0.764 | 1.52 | 1.26 | 0.442 | 0.733 | 2.9 | 1.3 | 0.539 | 0.542 | 0.462 | 4.47 | 0.513 | 0.926
0.483 | 0.746 | 0.599 | RRGTRYMFSRP [RPL21_Y13] | 0.887 | 0.837 | 0.625 | 0.768 | 0.594 | 0.554 | 0.952 | 0.782 | 0.971 | 0.829 | 0.859 | 0.853 | 0.922
0.583 | 0.568 | 0.722 | RRIHCYRGHLW [VHL_Y112_S111C] | 0.66 | 0.556 | 0.702 | 0.524 | 1.17 | 0.56 | 0.626 | 0.49 | 0.527 | 0.465 | 0.475 | 0.483 | 0.62
0.343 | 0.45 | 0.637 | RRIHSYRGQLW [VHL_Y112_H115Q] | 0.617 | 0.535 | 0.925 | 0.438 | 0.813 | 0.596 | 1.25 | 0.491 | 0.906 | 0.883 | 0.536 | 0.664 | 0.776
0.372 | 0.561 | 0.967 | RRIHSYRGRLW [VHL_Y112_H115R] | 0.637 | 0.538 | 0.68 | 0.641 | 0.771 | 0.811 | 0.956 | 0.865 | 0.836 | 0.547 | 0.733 | 0.754 | 0.7
0.627 | 0.498 | 1.11 | RRNEEYCLLAS [ITK_Y198_D202A] | 0.594 | 0.703 | 0.741 | 0.72 | 0.924 | 0.977 | 0.976 | 1.55 | 0.522 | 0.536 | 0.888 | 0.84 | 0.57
0.513 | 0.588 | 0.687 | RRVEPYGENFN [APOA4_Y310] | 0.542 | 0.561 | 0.965 | 0.385 | 1.2 | 0.655 | 1.23 | 0.521 | 0.707 | 0.487 | 0.421 | 0.45 | 0.643
0.425 | 0.5 | 0.71 | RRVLVYRGRGA [QDPR_Y16_G17R] | 0.618 | 0.708 | 0.692 | 0.714 | 0.991 | 0.779 | 0.963 | 0.818 | 0.829 | 0.712 | 0.758 | 0.782 | 0.754
0.435 | 0.748 | 0.738 | RSDEDYLYREE [POR_Y573] | 0.559 | 0.52 | 1.48 | 0.854 | 1.54 | 1.16 | 1.32 | 0.756 | 0.813 | 0.761 | 0.784 | 0.827 | 0.56
0.615 | 0.782 | 0.688 | RSGNCYLDIRP [FBN1_Y1535] | 0.514 | 0.633 | 1.45 | 0.7 | 1.27 | 0.728 | 1.06 | 0.58 | 1.04 | 0.567 | 0.802 | 0.544 | 0.583
1.17 | 0.421 | 0.759 | RSYSPCDYQPC [TNS1_Y796_Y796C] | 0.544 | 0.726 | 0.533 | 8.45 | 0.935 | 1.28 | 1.12 | 17.1 | 0.457 | 0.554 | 2.76 | 0.777 | 1.56
0.454 | 0.553 | 0.804 | RVQKRYILDNV [RCN1_Y115_F117L] | 0.337 | 0.367 | 0.487 | 0.234 | 0.463 | 0.327 | 0.494 | 0.176 | 0.384 | 0.372 | 0.326 | 0.366 | 0.409
0.62 | 0.686 | 0.856 | SAGSSYSISVI [PAX5_Y179_G183V] | 0.572 | 0.472 | 0.835 | 0.712 | 0.975 | 0.752 | 0.986 | 0.553 | 0.807 | 0.688 | 0.485 | 0.539 | 0.48
1.06 | 0.713 | 0.766 | SARSAYQEAMD [SFN_Y151] | 0.402 | 0.38 | 0.638 | 0.584 | 0.854 | 0.539 | 0.81 | 0.474 | 0.628 | 0.495 | 0.418 | 0.445 | 0.353
0.792 | 0.893 | 0.78 | SASQEYHIVKK [PDZD2_Y557] | 0.48 | 0.507 | 0.572 | 0.527 | 0.676 | 0.538 | 0.779 | 0.512 | 0.697 | 0.422 | 0.905 | 0.513 | 0.441
0.505 | 0.823 | 0.95 | SAVTGYRVNVI [FN1_Y937_D940N] | 0.434 | 0.359 | 0.634 | 0.407 | 0.752 | 0.488 | 0.633 | 0.407 | 0.415 | 0.403 | 0.391 | 0.399 | 0.386
0.57 | 0.608 | 0.781 | SDGKRYRVPSD [HHIPL2_Y395_H391D] | 0.408 | 0.409 | 0.771 | 0.303 | 0.522 | 0.426 | 0.555 | 0.357 | 0.44 | 0.338 | 0.377 | 0.346 | 0.384
0.47 | 0.592 | 0.796 | SDVCMYRKNTY [SYNE2_Y570_I574T] | 0.401 | 0.403 | 0.67 | 0.519 | 0.905 | 0.695 | 0.76 | 0.477 | 0.684 | 0.405 | 0.429 | 0.487 | 0.377
0.48 | 0.901 | 0.852 | SECCKYKTDNP [OSMR_Y689_I691T] | 0.387 | 0.492 | 0.725 | 0.413 | 0.752 | 0.655 | 0.66 | 0.472 | 0.587 | 0.375 | 0.51 | 0.452 | 0.443
0.543 | 0.989 | 0.942 | SETSRYLSDLF [KCNJ3_Y67] | 0.555 | 0.485 | 1.17 | 0.562 | 1.21 | 0.627 | 0.963 | 0.726 | 0.844 | 0.504 | 0.544 | 0.515 | 0.549
0.489 | 0.605 | 0.831 | SFPPTYRYERG [INPPL1_Y661] | 0.29 | 0.505 | 0.449 | 0.43 | 0.592 | 0.49 | 0.73 | 0.362 | 0.373 | 0.431 | 0.498 | 0.437 | 0.427

— the supplement of paper PMC10065799, “High-throughput profiling of sequence recognition by tyrosine kinases and SH2 domains using bacterial peptide display” (eLife, 2023)
